Among the data in PMC11311238 are fraction of the decay of excited CK bilins that is quenched (112 ps component) in CK-NTD, transient absorption with excitation values, retold here.

The experiment concerns the target phycobilisome core (CK) of allophycocyanin cylinders from a Synechocystis PCC 6803 mutant lacking the rods (Synechocystis sp. PCC 6803 (endogenous in the rod-less mutant)) (UniProt Q01951).

B1: N-terminal domain (NTD) of the orange carotenoid protein (OCP) binding canthaxanthin (holo-NTD) (domain or fragment)
chain: VPATIARFSQLNAEDQLALIWFAYLEMGKTLTIAAPGAASMQLAENALKEIQAMGPLQQTQAMCDLANRADTPLCRTYASWSPNIKLGFWYRLGELMEQGFVAPIPAGYQLSANANAVLATIQGLESGQQITVLRNAVVDMGFTA
Molecule B1 yielded a fraction of the decay of excited CK bilins that is quenched (112 ps component) in CK-NTD, transient absorption with excitation at 694 nm of 76%.
